Measurements as given in patent US20210403565A1 (BIOATLA, published 2021).
Each block holds one binder with its values, some of them ahead of it.

How the values were obtained:
[1] = biological target: T1, human CTLA4 expressed on the cell surface of CHO cells (human, UniProt P16410 36-223); test: FACS saturation, CHO-huCTLA-4, pH 7.4, MFI, titration up to about log 6.5; no unit in the table, unit from the axis Log Antibodies [ng/ml]
T1 construct: whole, on cells; also called CHO-huCTLA4; huCTLA4
T1 sequence (looked up): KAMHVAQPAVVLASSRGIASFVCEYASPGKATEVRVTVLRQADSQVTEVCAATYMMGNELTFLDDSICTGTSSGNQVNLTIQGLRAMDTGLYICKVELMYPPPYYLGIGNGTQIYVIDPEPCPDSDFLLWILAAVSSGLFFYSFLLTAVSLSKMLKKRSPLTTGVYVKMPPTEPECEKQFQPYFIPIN
Procedure: (§1) The amount of antibodies bound on the cells was quantified using anti-human IgG antibody conjugated to fluorophores. EC₅₀ values at pH 6.0 and 7.4 for binding to cells were calculated using the nonlinear fit (variable slope, four parameters) model built into GraphPad Prism software (version 7.03). The expression levels of human CTLA4 or cynomolgus CTLA4 on the surface of the CHO cells were determined using a BD QuantiBRITE™ PE kit.
Finally, saturations of the antibodies on the CHO cells expressing human or cynomolgus CTLA4 at pH 7.4 were also measured by FACS (FIGS. 8A-8B).

[2] = biological target: T1, human CTLA4 expressed on the cell …; test: FACS, cells expressing human CTLA4, assay pH 6.0, MFI; lot 6972 in Glu buffer, T0; unit from the axis Log[ng/mL]
Procedure: (§2) The amount of bound antibodies was quantified using anti-human IgG antibody conjugated to fluorophores. The MFI in each reaction was proportional to the amount of antibodies bound. The EC₅₀ value (in ng/mL) for binding to human CTLA4 on cells was determined by MFI of the singlets population against antibody concentration with a Prism variable slope of four-parameter dose-response curve, which was calculated using the nonlinear fit (variable slope, four parameters) model built into GraphPad Prism software (version 7.03).

[3] = biological target: T2, recombinant human CTLA4 extracellular domain (human, UniProt P16410 36-161); test: ELISA, wells coated with human CTLA4, assay pH 7.4; lot 6972 in Glu buffer, T2W; unit from the axis Log[ng/mL]
T2 construct: extracellular domain; also called huCTLA-4
T2 sequence (looked up): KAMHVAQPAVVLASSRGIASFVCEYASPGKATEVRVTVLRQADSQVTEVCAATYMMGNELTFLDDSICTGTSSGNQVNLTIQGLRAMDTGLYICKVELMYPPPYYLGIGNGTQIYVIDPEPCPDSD
Procedure: (§3) Both ELISA and FACS analysis were used to measure the binding activity. […] The amount of bound antibodies was quantified using anti-human IgG antibody conjugated to HRP. The absorbance at 450 nm in each measurement was proportional to the amount of antibodies bound. […] EC50 value (in ng/mL) for binding to human CTLA4 was determined by absorbance at 450 nm against antibody concentration with Prism variable slope of four-parameter dose-response curve, which was calculated using the nonlinear fit (variable slope, four parameters) model built into GraphPad Prism software (version 7.03). The buffers tested included His buffer (His), Tris buffer (Tris), Glutamine buffer (Glu) and no buffer.

[4] = biological target: T2, recombinant human CTLA4 extracellular …; test: ELISA, wells coated with human CTLA4, assay pH 7.4; lot 6972 in Tris buffer, T2W; unit from the axis Log[ng/mL]
Procedure: as §3

[5] = biological target: T1, human CTLA4 expressed on the cell …; test: FACS, CHO cells expressing human CTLA4 (CHO-huCTLA-4), pH 7.4, MFI; no unit in the table, unit from the axis Log Antibodies [ng/ml]
Procedure: as §1
At least two independent duplicate FACS experiments were performed for each antibody using each of the cell lines. The binding activities at different concentrations of the antibodies are plotted in these figures.

[6] = biological target: T1, human CTLA4 expressed on the cell …; test: FACS, cells expressing human CTLA4, assay pH 6.0, MFI; lot 6972 in Glu buffer, T2W; unit from the axis Log[ng/mL]
Procedure: as §2

[7] = biological target: T1, human CTLA4 expressed on the cell …; test: FACS, cells expressing human CTLA4, assay pH 7.4, MFI; lot 6978 in His buffer, T0; unit from the axis Log[ng/mL]
Procedure: as §2

[8] = biological target: T1, human CTLA4 expressed on the cell …; test: FACS, cells expressing human CTLA4, assay pH 7.4, MFI; lot 6978 in Glu buffer, T2W; unit from the axis Log[ng/mL]
Procedure: as §2

[9] = biological target: T1, human CTLA4 expressed on the cell …; test: FACS, cells expressing human CTLA4, assay pH 6.0, MFI; lot 6978 in Glu buffer, T2W; unit from the axis Log[ng/mL]
Procedure: as §2

[10] = biological target: T1, human CTLA4 expressed on the cell …; test: FACS, cells expressing human CTLA4, assay pH 7.4, MFI; lot 6978 in Glu buffer, T0; unit from the axis Log[ng/mL]
Procedure: as §2

[11] = biological target: T1, human CTLA4 expressed on the cell …; test: FACS, cells expressing human CTLA4, assay pH 7.4, MFI; lot 6978 in Tris buffer, T2W; unit from the axis Log[ng/mL]
Procedure: as §2

[12] = biological target: T2, recombinant human CTLA4 extracellular …; test: ELISA, wells coated with human CTLA4, assay pH 7.4; lot 6978 in Glu buffer, T2W; curve still rising at log 3 (OD450 at most about 0.3), no plateau; unit from the axis Log[ng/mL]
Procedure: as §3

[13] = biological target: T2, recombinant human CTLA4 extracellular …; test: ELISA, wells coated with human CTLA4, assay pH 6.0; lot 6978 without test buffer; same column repeated in FIG. 9E and FIG. 9F; unit from the axis Log[ng/mL]
Procedure: as §3

- EC50 [1]: 0.846 µg/mL
- EC50 [2]: 0.291 µg/mL
- EC50 [3]: 0.022 µg/mL
- EC50 [4]: 0.0365 µg/mL
- EC50 [5]: 0.438 µg/mL
- EC50 [6]: 0.267 µg/mL
B1: BA-087-05-19 (antibody, V domains shown)
VH: EVQLVESGGGLVQPGGSLRLSCAASGFTFSHYTMHWVRQAPGKGLEWVSFISYDGNNKYYADSVKGRFTISRDNSKNTLYLQMNSLRAEDTAVYYCARTGWLGPFDYWGQGTLVTVSS
VL: AIQLTQSPSSLSASVGDRVTITCRASQYVGSSYLAWYLQKPGQSPQLLIYGAFSRATGIPARFSGSGSGTEFTLTISSLQSEDFAVYYCQQDGSSPWTFGQGTKVEIK
notes: Detected with anti-human IgG and a molecular weight of 146 kDa was used in SPR, so it was tested as a whole IgG; also called BA-087-05-019; BA-087-05-19 (# 6972)

- EC50 [7]: 0.849 µg/mL
- EC50 [8]: 1.41 µg/mL
- EC50 [9]: 0.176 µg/mL
- EC50 [10]: 0.814 µg/mL
- EC50 [11]: 1.54 µg/mL
- EC50 [12]: 0.724 µg/mL
- EC50 [13]: 0.0222 µg/mL
B2: BA-087-08-32 (antibody, V domains shown)
VH: EVQLVQSGAEVKKPGATVKISCKVSGFTFSHYTMHWIRQSPSRGLEWLGFISYDGNYKYYADSVKGRFTISRDNAKNSLYLQMNSLRAEDTAVYYCARTGWLGPFDYWGQGTLVTVSS
VL: EIVMTQSPATLSVSPGERATLSCRASQSVGSSYLAWYQQKPGKAPKLLIYGAFSRATGVPSRFSGSGSGTDFTLTISSLQPEDFATYYCQQDGSSPWTFGQGTKVEIK
notes: Detected with anti-human IgG and a molecular weight of 146 kDa was used in SPR, so it was tested as a whole IgG; also called BA-087-08-032; BA-087-08-32 (# 6978)
